Measurements as given in doi:10.1101/2025.11.14.688546, “Nuclear-import receptors remodel the dilute phase to suppress phase transitions of RNA-binding proteins with prion-like domains” (bioRxiv, 2025).
Where two headings read alike, the source gives them in different places. Blank lines part the entries; values can stand above or below the molecule they belong to.

Experiments:
[1] = target: Kapβ2 (Homo sapiens) (UniProt Q92973); assay: fluorescence anisotropy; conditions: cited from earlier work
Chain of Kapβ2 (Homo sapiens) (Q92973 whole entry): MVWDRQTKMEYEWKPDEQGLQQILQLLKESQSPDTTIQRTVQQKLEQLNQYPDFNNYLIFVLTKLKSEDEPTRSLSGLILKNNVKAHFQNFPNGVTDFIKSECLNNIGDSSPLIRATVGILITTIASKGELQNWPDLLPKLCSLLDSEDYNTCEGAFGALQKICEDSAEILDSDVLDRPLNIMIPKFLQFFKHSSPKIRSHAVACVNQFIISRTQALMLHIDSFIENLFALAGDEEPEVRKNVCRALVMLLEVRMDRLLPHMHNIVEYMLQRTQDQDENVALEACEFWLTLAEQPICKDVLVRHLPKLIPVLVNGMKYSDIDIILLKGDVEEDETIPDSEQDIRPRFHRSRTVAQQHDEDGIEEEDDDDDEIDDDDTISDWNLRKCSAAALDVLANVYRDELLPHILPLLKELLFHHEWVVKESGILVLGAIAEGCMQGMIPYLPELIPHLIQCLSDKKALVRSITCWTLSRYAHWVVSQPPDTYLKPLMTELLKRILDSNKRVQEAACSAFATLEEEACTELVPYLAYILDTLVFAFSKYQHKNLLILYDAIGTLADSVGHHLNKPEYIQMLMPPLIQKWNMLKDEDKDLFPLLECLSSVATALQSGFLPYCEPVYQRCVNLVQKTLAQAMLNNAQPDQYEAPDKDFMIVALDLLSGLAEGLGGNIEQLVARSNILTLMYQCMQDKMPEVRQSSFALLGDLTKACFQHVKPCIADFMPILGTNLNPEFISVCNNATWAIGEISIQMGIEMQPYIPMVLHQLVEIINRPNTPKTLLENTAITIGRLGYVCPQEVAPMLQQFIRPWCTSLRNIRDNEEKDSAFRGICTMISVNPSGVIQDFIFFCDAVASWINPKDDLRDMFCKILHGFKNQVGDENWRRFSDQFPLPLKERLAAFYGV

[2] = target: Kapβ2 (Homo sapiens) (UniProt Q92973); conditions: cited from earlier work
[3] = target: hnRNPA1 (UniProt P09651)
Chain of hnRNPA1 (P09651 whole entry): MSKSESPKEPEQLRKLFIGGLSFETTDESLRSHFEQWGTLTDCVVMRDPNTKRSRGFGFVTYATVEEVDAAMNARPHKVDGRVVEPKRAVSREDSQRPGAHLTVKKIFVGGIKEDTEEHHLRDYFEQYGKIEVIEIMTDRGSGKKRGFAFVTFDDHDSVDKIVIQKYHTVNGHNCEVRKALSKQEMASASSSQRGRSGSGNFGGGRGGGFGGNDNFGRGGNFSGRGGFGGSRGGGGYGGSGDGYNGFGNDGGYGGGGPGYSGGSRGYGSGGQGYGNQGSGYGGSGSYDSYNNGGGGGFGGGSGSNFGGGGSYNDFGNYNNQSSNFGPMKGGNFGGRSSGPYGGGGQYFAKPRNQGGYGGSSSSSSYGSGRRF

[4] = target: the molecule itself; assay: microfluidic resistive pulse sensing (MRPS); increasing concentrations of the RNA-binding protein alone; MBP cleaved in situ by TEV (0.04 mg/ml), 1.5–2 h at room temperature; C-400 and C-2000 cartridges (70–2000 nm); FUS: 20 mM HEPES pH 7.4, 207 mM NaCl, 1.3 mM DTT, 0.7 mM EDTA, 3.3 % glycerol; hnRNPA1 and hnRNPA2: same with 66.7 mM NaCl

Molecule: FUS (from UniProt P35637)
Kd [1]: 43 nM
Kd [2]: 50 nM

saturation concentration (csat) of hnRNPA1 for condensate formation, brightfield microscopy; ~4 μM without Kapβ2, measured with 2 μM Kapβ2 [3]: 6 µM
Molecule: Karyopherin-β2 (from UniProt Q92973 1-898) (natural protein)

B1: FUS^P525L (natural protein, UniProt P35637 1-526, looked up)
chain: MASNDYTQQATQSYGAYPTQPGQGYSQQSSQPYGQQSYSGYSQSTDTSGYGQSSYSSYGQSQNTGYGTQSTPQGYGSTGGYGSSQSSQSSYGQQSSYPGYGQQPAPSSTSGSYGSSSQSSSYGQPQSGSYSQQPSYGGQQQSYGQQQSYNPPQGYGQQNQYNSSSGGGGGGGGGGNYGQDQSSMSSGGGSGGGYGNQDQSGGGGSGGYGQQDRGGRGRGGSGGGGGGGGGGYNRSSGGYEPRGRGGGRGGRGGMGGSDRGGFNKFGGPRDQGSRHDSEQDNSDNNTIFVQGLGENVTIESVADYFKQIGIIKTNKKTGQPMINLYTDRETGKLKGEATVSFDDPPSAKAAIDWFDGKEFSGNPIKVSFATRRADFNRGGGNGRGGRGRGGPMGRGGYGGGGSGGGGRGGFPSGGGGGGGQQRAGDWKCPNPTCENMNFSWRNECNQCKAPKPDGPGGGPGGSHMGGNYGDDRRGGRGGYDRGGYRGRGGDRGGFRGGRGGGDRGGFGPGKMDSRGEHRQDRRERLY
notes: Production of the variant is not described on its own; also called ALS-linked FUS variant P525L; not shown: MBP, N-terminal, cleaved
binding result [4]: binds
